# Data from PMC9482650, “Quantitative fragmentomics allow affinity mapping of interactomes” (Nature Communications, 2022).
# B1: ATP2B4, P23634 (peptide)
# chain: SSLQSLETSV
# B2: SLC4A7, Q9Y6M7 (peptide)
# chain: KKYVDAETSL
# B3: TMIGD1, Q6UXZ0 (peptide)
# chain: DKDPHSETAL
# B4: HPV30-E6, P36809 (peptide)
# chain: RHTTSTETAV
# Columns and labels:
# Assay in all cases: holdup assay
# Design in all cases: key: below the threshold = too weak to quantify, mostly under pKd 3.1 to 4
# Conditions in all cases: plain residues with an end cap or a label only (N-terminal biotin on a linker: ttds)
# GRIP2_5, Q9C0E4 = molecular target: GRIP2_5, Q9C0E4
# SHANK1, Q9Y566 = molecular target: T1, SHANK1, Q9Y566
# T1 sequence (Q9Y566 658-767, limits assumed, looked up): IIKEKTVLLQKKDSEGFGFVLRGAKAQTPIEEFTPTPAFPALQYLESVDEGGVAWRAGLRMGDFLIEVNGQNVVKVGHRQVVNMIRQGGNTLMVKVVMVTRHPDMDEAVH
# IL16_4, Q14005 = molecular target: IL16_4, Q14005
# PCLO, Q9Y6V0 = molecular target: T2, PCLO, Q9Y6V0
# T2 sequence (Q9Y6V0 4491-4600, limits assumed, looked up): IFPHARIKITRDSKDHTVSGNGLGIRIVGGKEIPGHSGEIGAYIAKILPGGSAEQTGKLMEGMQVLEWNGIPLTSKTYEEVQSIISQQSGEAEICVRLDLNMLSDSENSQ
# SNX27, Q96L92 = molecular target: SNX27, Q96L92
# Inadl_2, Q8NI35 = molecular target: Inadl_2, Q8NI35
# PDZRN3_1, Q9UPQ7 = molecular target: T3, PDZRN3_1, Q9UPQ7
# T3 sequence (Q9UPQ7 244-349, limits assumed, looked up): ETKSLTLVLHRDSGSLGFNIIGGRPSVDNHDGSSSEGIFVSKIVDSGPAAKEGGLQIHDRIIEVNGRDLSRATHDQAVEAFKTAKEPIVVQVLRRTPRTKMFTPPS
# NHERF3_3, Q5T2W1 = molecular target: T4, NHERF3_3, Q5T2W1
# T4 sequence (Q5T2W1 238-333, limits assumed, looked up): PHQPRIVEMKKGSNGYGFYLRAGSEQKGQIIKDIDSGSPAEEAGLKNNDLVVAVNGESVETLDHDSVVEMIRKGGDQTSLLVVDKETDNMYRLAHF
# PICK1, Q9NRD5 = molecular target: PICK1, Q9NRD5
# Inadl_8, Q8NI35 = molecular target: Inadl_8, Q8NI35
# SIPA1L2, Q9P2F8 = molecular target: T5, SIPA1L2, Q9P2F8
# T5 sequence (Q9P2F8 945-1036, limits assumed, looked up): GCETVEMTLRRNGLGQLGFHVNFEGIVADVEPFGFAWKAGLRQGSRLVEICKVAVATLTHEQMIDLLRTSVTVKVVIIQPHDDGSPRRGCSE
# MAST2, Q6P0Q8 = molecular target: MAST2, Q6P0Q8
# IL16_1, Q14005 = molecular target: IL16_1, Q14005
# DLG5_1, Q8TDM6 = molecular target: DLG5_1, Q8TDM6
# RHPN1, Q8TCX5 = molecular target: T6, RHPN1, Q8TCX5
# T6 sequence (Q8TCX5 508-602, limits assumed, looked up): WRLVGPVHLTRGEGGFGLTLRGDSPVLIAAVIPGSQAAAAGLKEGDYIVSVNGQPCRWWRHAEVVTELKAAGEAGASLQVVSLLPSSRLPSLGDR
# GORASP1, Q9BQQ3 = molecular target: GORASP1, Q9BQQ3
# PTPN3, P26045 = molecular target: PTPN3, P26045
# NHERF2_2, Q15599 = molecular target: NHERF2_2, Q15599
# ARHGAP21, Q5T5U3 = molecular target: T7, ARHGAP21, Q5T5U3
# T7 sequence (Q5T5U3 45-169, limits assumed, looked up): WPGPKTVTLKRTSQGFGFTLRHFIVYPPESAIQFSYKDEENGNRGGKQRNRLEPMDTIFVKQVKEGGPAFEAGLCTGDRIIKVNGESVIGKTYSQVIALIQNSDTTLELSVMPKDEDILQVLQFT
# LDB3, O75112 = molecular target: LDB3, O75112
# NHERF4_4, Q86UT5 = molecular target: NHERF4_4, Q86UT5
# MAST1, Q9Y2H9 = molecular target: MAST1, Q9Y2H9
# MPP6, Q9NZW5 = molecular target: T8, MPP6, Q9NZW5
# T8 sequence (Q9NZW5 125-219, limits assumed, looked up): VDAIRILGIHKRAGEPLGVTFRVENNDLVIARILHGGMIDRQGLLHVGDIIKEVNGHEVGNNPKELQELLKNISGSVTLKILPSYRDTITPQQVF
# ARHGEF11, O15085 = molecular target: T9, ARHGEF11, O15085
# T9 sequence (O15085 42-136, limits assumed, looked up): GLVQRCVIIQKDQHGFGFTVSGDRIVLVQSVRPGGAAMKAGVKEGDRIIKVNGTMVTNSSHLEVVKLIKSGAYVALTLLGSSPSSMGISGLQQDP
# DLG3_2, Q92796 = molecular target: T10, DLG3_2, Q92796
# T10 sequence (Q92796 221-321, limits assumed, looked up): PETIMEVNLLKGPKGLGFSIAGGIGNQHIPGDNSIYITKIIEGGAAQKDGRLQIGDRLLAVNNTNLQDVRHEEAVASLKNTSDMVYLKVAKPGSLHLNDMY
# LNX2_2, Q8N448 = molecular target: T11, LNX2_2, Q8N448
# T11 sequence (Q8N448 334-432, limits assumed, looked up): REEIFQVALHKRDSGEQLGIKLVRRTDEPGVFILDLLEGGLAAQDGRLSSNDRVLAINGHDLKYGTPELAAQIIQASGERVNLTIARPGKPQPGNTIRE
# TJP1_2, Q07157 = molecular target: TJP1_2, Q07157
# TJP1_2, Q07157, sequence (Q07157 181-274): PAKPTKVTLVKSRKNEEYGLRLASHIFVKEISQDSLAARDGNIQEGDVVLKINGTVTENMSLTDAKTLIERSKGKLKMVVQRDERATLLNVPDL
# NHERF4_4, Q86UT5, sequence (Q86UT5 464-550): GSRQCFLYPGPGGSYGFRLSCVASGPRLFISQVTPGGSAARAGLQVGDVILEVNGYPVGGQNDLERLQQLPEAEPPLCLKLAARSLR
# MAST2, Q6P0Q8, sequence (Q6P0Q8 1099-1202): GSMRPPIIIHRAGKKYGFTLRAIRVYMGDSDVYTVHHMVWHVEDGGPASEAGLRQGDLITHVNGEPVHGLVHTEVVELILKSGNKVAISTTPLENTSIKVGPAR
# Inadl_8, Q8NI35, sequence (Q8NI35 1425-1530): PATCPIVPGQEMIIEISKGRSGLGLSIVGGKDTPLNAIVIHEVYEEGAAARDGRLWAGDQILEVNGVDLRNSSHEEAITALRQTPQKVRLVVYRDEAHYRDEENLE
# Inadl_2, Q8NI35, sequence (Q8NI35 238-335): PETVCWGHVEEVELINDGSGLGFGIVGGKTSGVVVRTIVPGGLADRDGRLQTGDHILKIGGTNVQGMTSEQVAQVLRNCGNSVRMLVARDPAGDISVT
# PICK1, Q9NRD5, sequence (Q9NRD5 17-115): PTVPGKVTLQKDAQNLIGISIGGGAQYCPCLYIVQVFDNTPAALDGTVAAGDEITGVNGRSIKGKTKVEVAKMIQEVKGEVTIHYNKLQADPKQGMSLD
# LDB3, O75112, sequence (O75112 1-94): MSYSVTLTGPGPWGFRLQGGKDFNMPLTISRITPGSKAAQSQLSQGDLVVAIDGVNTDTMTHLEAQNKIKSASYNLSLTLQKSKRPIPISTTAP
# DLG5_1, Q8TDM6, sequence (Q8TDM6 617-713): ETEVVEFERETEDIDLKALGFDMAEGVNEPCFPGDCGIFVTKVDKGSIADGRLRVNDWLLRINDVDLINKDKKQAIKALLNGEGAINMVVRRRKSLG
# IL16_4, Q14005, sequence (Q14005 1229-1329): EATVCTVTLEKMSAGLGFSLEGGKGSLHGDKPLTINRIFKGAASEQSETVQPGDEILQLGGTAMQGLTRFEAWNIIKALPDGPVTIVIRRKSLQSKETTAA
# PTPN3, P26045, sequence (P26045 505-587): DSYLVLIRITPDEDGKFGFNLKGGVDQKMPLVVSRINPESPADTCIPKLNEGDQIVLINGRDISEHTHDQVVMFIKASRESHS
# GRIP2_5, Q9C0E4, sequence (Q9C0E4 544-642): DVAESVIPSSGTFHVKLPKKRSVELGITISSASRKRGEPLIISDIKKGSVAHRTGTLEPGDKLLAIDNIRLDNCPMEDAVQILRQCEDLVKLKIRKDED
# GORASP1, Q9BQQ3, sequence (Q9BQQ3 1-208): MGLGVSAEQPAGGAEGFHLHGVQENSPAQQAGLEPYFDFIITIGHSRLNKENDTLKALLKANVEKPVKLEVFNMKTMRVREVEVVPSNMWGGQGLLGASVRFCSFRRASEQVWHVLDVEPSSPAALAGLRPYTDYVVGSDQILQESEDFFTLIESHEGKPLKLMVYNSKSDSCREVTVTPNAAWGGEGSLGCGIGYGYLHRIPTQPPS
# MAST1, Q9Y2H9, sequence (Q9Y2H9 962-1065): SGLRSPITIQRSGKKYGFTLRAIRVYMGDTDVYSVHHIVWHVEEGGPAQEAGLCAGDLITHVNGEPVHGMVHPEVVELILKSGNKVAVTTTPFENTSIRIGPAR
# IL16_1, Q14005, sequence (Q14005 210-306): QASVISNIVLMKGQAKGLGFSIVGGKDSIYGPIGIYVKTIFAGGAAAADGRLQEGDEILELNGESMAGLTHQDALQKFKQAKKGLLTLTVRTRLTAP
# NHERF2_2, Q15599, sequence (Q15599 142-238): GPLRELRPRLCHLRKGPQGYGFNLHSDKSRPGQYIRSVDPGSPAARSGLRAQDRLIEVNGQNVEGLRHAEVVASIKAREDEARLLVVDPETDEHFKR
Binder,"pKd (GRIP2_5, Q9C0E4)","pKd (SHANK1, Q9Y566)","pKd (IL16_4, Q14005)","pKd (PCLO, Q9Y6V0)","pKd (SNX27, Q96L92)","pKd (Inadl_2, Q8NI35)","pKd (PDZRN3_1, Q9UPQ7)","pKd (NHERF3_3, Q5T2W1)","pKd (PICK1, Q9NRD5)","pKd (Inadl_8, Q8NI35)","pKd (SIPA1L2, Q9P2F8)","pKd (MAST2, Q6P0Q8)","pKd (IL16_1, Q14005)","pKd (DLG5_1, Q8TDM6)","pKd (RHPN1, Q8TCX5)","pKd (GORASP1, Q9BQQ3)","pKd (PTPN3, P26045)","pKd (NHERF2_2, Q15599)","pKd (ARHGAP21, Q5T5U3)","pKd (LDB3, O75112)",also measured
B1,below the threshold,3.94,below the threshold,below the threshold,5.7,below the threshold,5.15,below the threshold,3.76,3.54,below the threshold,5.53,4.7,below the threshold,4.58,below the threshold,5.12,3.84,below the threshold,below the threshold,"pKd (NHERF4_4, Q86UT5): below the threshold; pKd (MAST1, Q9Y2H9): 5.26; pKd (MPP6, Q9NZW5): 3.56; pKd (ARHGEF11, O15085): 4.43; pKd (DLG3_2, Q92796): 5.2; pKd (LNX2_2, Q8N448): 4.01; pKd (TJP1_2, Q07157): below the threshold"
B2,below the threshold,4.67,3.53,below the threshold,5.71,below the threshold,4.57,below the threshold,below the threshold,below the threshold,below the threshold,6.38,below the threshold,below the threshold,4.28,below the threshold,5.04,4.62,below the threshold,below the threshold,"pKd (NHERF4_4, Q86UT5): below the threshold; pKd (MAST1, Q9Y2H9): 5.32; pKd (MPP6, Q9NZW5): below the threshold; pKd (ARHGEF11, O15085): 3.97; pKd (DLG3_2, Q92796): 3.91; pKd (LNX2_2, Q8N448): below the threshold; pKd (TJP1_2, Q07157): below the threshold"
B3,below the threshold,4.42,below the threshold,below the threshold,5.49,below the threshold,4.64,below the threshold,below the threshold,below the threshold,below the threshold,5.64,below the threshold,below the threshold,3.85,below the threshold,5.02,4.66,below the threshold,below the threshold,"pKd (NHERF4_4, Q86UT5): below the threshold; pKd (MAST1, Q9Y2H9): 4.85; pKd (MPP6, Q9NZW5): below the threshold; pKd (ARHGEF11, O15085): 4.28; pKd (DLG3_2, Q92796): below the threshold; pKd (LNX2_2, Q8N448): below the threshold; pKd (TJP1_2, Q07157): below the threshold"
B4,3.75,3.73,below the threshold,below the threshold,5.64,below the threshold,4.68,below the threshold,below the threshold,3.94,below the threshold,5.52,4.08,below the threshold,4.08,below the threshold,5.13,below the threshold,below the threshold,below the threshold,"pKd (NHERF4_4, Q86UT5): below the threshold; pKd (MAST1, Q9Y2H9): 4.66; pKd (MPP6, Q9NZW5): below the threshold; pKd (ARHGEF11, O15085): 4.35; pKd (DLG3_2, Q92796): 5.41; pKd (LNX2_2, Q8N448): 3.77; pKd (TJP1_2, Q07157): below the threshold"
